Experimental data reported in patent US20220152105A1 (published 2022).

Target: T1, gp100 peptide on HLA-C*06:02 (human)
T1 peptide: HRRGSRSYV
Assay: multimer staining
Method: T cells (1×10⁵) were incubated for 30 minutes at 37° C. in the presence of 50 nM dasatinib (LC laboratories). The cells were then washed and incubated with 5-10 μg/ml of multimer for 30 minutes at room temperature, and R-phycoerythrin-conjugated AffiniPure Fab fragment goat anti-mouse IgG1 (Jackson ImmunoResearch Laboratories) was added for 15 minutes at 4° C. Next, the cells were washed three times and costained with an anti-CD8 mAb for 15 minutes at 4° C. Dead cells were finally discriminated using the LIVE/DEAD Fixable Dead Cell Stain kit.

B1: C*06:02/gp100190-198 TCR (TCR, V domains shown)
Valpha: KNQVEQSPQSLIILEGKNCTLQCNYTVSPFSNLRWYKQDTGRGPVSLTIMTFSENTKSNGRYTATLDADTKQSSLHITASQLSDSASYICVVRGMDSSYKLIFGSGTRLLVRP
Vbeta: DAMVIQNPRYQVTQFGKPVTLSCSQTLNHNVMYWYQQKSSQAPKLLFHYYDKDFNNEADTPDNFQSRRPNTSFCFLDIRSPGLGDAAMYLCATSSEDSSNQPQHFGDGTRLSIL
**Q.** Does B1 bind?
**A.** recognises
